From US9926369B2, “Methods for treating hepatocellular cancer by administering an anti-Ang-2 antibody” (Regeneron Pharmaceuticals, Inc., priority 2009, dated 2018)

Assays:
[1] = tested on: Ang-1-mediated Tie-2 phosphorylation in EA.hy926 cells; experiment: Inhibition of Ang-1-mediated Tie-2 phosphorylation in EA.hy926 cells; type: cell-based, human; details: up to 400 nM
Procedure: EA.hy926 cells (Edgell et al., Proc. Natl. Acad. Sci. USA 80:3734-3737 (1983)) were plated at 5×10^6 cells per 10 cm dish in 10 ml DMEM with 10% FBS, HAT, L-glutamine and penicillin/streptomycin. After 24 hours, cells were serum-starved for 1 hour in 10 ml DMEM+1 mg/ml BSA. Cells were then stimulated for 10 minutes with 500 ng/ml of recombinant human Ang-1 (R&D Systems) in the presence of either an irrelevant isotype control antibody (“9E10”) at 400 nM or the anti-Ang-2 antibody H1H685P, or control agents (Control I, Control II, Control IV, or Control V) at concentrations ranging from 10 to 400 nM.
Following incubation, cells were lysed and Tie-2 was immunoprecipitated as described by Daly et al., Proc. Natl. Acad. Sci. USA 103:15491-15496 (2006). Immune complexes were collected by incubation with protein A/G beads (Santa Cruz Biotechnology, Santa Cruz, Calif.) for 60 min. Beads were washed with cold lysis buffer and bound proteins were eluted by heating in SDS sample buffer. Samples were then subjected to Western blot analysis with monoclonal antibodies against Tie-2 or phosphotyrosine (clone 4G10, Millipore, Billerica, Mass.).
Signals were detected using HRP-conjugated secondary antibodies and ECL reagents (GE Healthcare, Piscataway, N.J.). X-ray films were scanned and the phospho-Tie-2 and Tie-2 signals were quantified using ImageJ software. […]

Monomeric hAng-2FD = molecular target: T1, Monomeric hAng-2FD (Homo sapiens, UniProt O15123); experiment: SPR binding to monomeric hAng-2FD at 25° C. and 37° C.
T1 sequence (O15123 282-496 limits assumed): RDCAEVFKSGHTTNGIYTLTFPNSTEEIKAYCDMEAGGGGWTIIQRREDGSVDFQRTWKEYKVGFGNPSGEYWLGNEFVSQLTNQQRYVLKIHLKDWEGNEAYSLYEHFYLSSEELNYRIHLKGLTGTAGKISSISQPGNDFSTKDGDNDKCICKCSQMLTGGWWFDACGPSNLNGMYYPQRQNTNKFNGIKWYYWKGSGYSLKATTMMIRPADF
Procedure: Additional experiments were conducted to measure the binding properties of selected anti-Ang-2 antibodies to monomeric hAng-2FD at 25° C. and 37° C. Each selected antibody or control construct was captured at a flow rate of 40 μL/min for 1 minute on a goat anti-human IgG polyclonal antibody surface created through direct chemical coupling to a BIACORE™ chip to form a captured antibody surface. Human Ang-2FD at a concentration of 500 nM or 7.8 nM was injected over the captured antibody surface at a flowrate of 60 μL/min for 3 minutes, and antigen-antibody dissociation was monitored in real time for 20 minutes at either 25° C. or 37° C.

[2] = molecular target: T2, hAng-1 WT binding to Tie-2 (Homo sapiens, UniProt Q15389); experiment: ELISA blocking of full-length hAng-1 WT binding to hTie-2-mFc; type: biochemical; details: 0.6 nM hAng-1-His
T2 construct: Full-length human Ang-2 or Ang-1 protein conjugated to 6× histidine tag (R&D Systems, Minneapolis, Minn.); purchased R&D Systems
T2 sequence (Q15389 20-498 limits assumed): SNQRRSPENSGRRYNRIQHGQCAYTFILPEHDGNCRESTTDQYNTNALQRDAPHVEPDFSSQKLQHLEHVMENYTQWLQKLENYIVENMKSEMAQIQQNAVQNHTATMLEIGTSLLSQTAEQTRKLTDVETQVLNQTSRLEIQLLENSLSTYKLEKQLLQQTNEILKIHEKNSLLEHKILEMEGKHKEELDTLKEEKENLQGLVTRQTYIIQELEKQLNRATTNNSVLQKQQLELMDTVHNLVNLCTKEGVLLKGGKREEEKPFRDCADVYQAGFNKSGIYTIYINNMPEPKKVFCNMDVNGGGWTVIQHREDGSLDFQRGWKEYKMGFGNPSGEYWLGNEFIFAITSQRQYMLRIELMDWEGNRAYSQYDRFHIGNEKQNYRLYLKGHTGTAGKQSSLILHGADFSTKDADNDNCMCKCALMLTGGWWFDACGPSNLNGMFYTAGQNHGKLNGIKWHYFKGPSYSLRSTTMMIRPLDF
Procedure: The ELISA experiments shown in this Example were conducted in a similar manner to the experiments of Example 5. Briefly, hTie-2-mFc (a chimeric construct consisting of human Tie-2 conjugated to mouse IgG; SEQ ID NO:525) was coated onto 96-well plates at a concentration of 2 μg/ml and incubated overnight followed by washing four times in wash buffer (PBS with 0.05% Tween-20). The plate was then blocked with PBS (Irvine Scientific, Santa Ana, Calif.) containing 0.5% BSA (Sigma-Aldrich Corp., St. Louis, Mo.) for one hour at room temperature. In a separate plate, purified anti-Ang-2 antibodies and control constructs, at a starting concentration of 300 nM, were serially diluted by a factor of three across the plate. Full-length human Ang-2 or Ang-1 protein conjugated to 6× histidine tag (R&D Systems, Minneapolis, Minn.) were added to a final concentration of 0.6 nM and incubated for one hour at room temperature. The antibody/antigen mixture was then added to the plate containing hTie-2-mFc and incubated for one hour at room temperature. Detection of Ang-2-His or Ang-1-His bound to hTie-2-mFc protein was determined with Horse-Radish Peroxidase (HRP) conjugated to a-Penta-His antibody (Qiagen, Valencia, Calif.) and developed by standard colorimetric response using tetramethylbenzidine (TMB) substrate (BD Biosciences, San Jose, Calif.). Absorbance was read at OD450 for 0.1 sec. […]

Question: “H1H685P: human anti-Ang-2 antibody, HCVR/LCVR SEQ ID NOs 18/20; also referred to as mAb1 [Antibody H1H685P]” was tested. Which “Inhibitory effect on Ang-1-induced Tie-2 phosphorylation (in words)” value [1] did it give?
Answer: The value was “no significant inhibitory effect”.

Question: And the Kd (Monomeric hAng-2FD; 25° C.)?
Answer: The Kd was 0.336 nM.

Question: And the “ka, binding to monomeric hAng-2FD” value (Monomeric hAng-2FD; 25° C.)?
Answer: The value was 244000 M/s.

Question: And the “kd, binding to monomeric hAng-2FD” value (Monomeric hAng-2FD; 25° C.)?
Answer: The value was 7.96e-05 s⁻¹.

Question: What about the Kd (Monomeric hAng-2FD; 37° C.) of the same substance?
Answer: The Kd was 0.342 nM.

Question: What about the “ka, binding to monomeric hAng-2FD” value (Monomeric hAng-2FD; 37° C.) of the same substance?
Answer: The value was 406000 M/s.

Question: What about the “kd, binding to monomeric hAng-2FD” value (Monomeric hAng-2FD; 37° C.) of the same substance?
Answer: The value was 0.000139 s⁻¹.

Question: And the IC50 [2]?
Answer: The IC50 was greater than 300 nM.
